From the nanobody polyreactivity screen of Harvey et al. (2022)

Assay: yeast display, Sf9 membrane polyspecificity reagent, FACS + sequencing; frameworks hold sequencing errors
Method in brief: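 A synthetic nanobody library was expressed on Saccharomyces cerevisiae BJ5465 by galactose induction for 36–48 hours. The library was stained for 1 hour at 4 °C with 10% biotinylated, detergent-solubilized Sf9 membrane reagent and enriched with streptavidin microbeads before FACS. Low and high (top ~1%) gates were set on anti-HA fluorescence for expression and streptavidin fluorescence for reagent binding, and each polyreactivity label reflects the gate of origin.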

Sequence	polyreactivity (PSR sort gate)
QVQLVESGGGLVQAGGSLRLSCAASGRIIGKNAMGWYRQAPGEERELVAAIRYNGGRTYYADSVKGRFTISRDNAKNTVYLQMNSLKPEDTAVYYCATRTYRVDPEFGYWGQGTQVTVSS	high polyreactivity
QVQLVESGGGLVQAGGSLRLSCAASGSTFKRYAMGWYRQAPGKERELVASISSGGSTNYADSVKGRFTISRDNAKNTVYLQMNSLKPEDTAVYYCAVSYRSFRYYWERYYSWGQGTQVTVSS	high polyreactivity
QVQLVESGGGLVQAGGSLRLSCAASGRIFKFYTMGWDRQAPGKERELVASIDSTGGSTYYADSVKGRFTISRDNAKNTVYLQMNSLKPEDTAVYYCAAEWIWSSNWYKKYDYWGQGSQVTVSS	high polyreactivity
QVQLVESGGGLVQAGGSLRLSCAASGSIFIYYAMGWYRQAPGKERELVAAISSSGGSTYYADSVKGRFTISRDNAKNTVYLQTNSLKPEDTAVYYCATVPYRYYDDDYWGQGTQVTVSS	high polyreactivity
QVQLVESGVGLVQAGGILRLSCAASGFIFALNAMGWYRQAPGKERELVATIDSTSGSTYYADSVKGRFTISRDNAKNTVYLEMNSLKPEDTAVYYCAVVHAQSAPMDYWGQGTQVTVSS	low polyreactivity
QVQLVESGGGLVQAGGSLRLSCAASASTLRRYAMGLYRQAPGQERELVAAISGTGSRTYYADSVKGRFTISRDTAKITVYLQMNSLKPEDSAVYYCNASPYRLTENDYWGQGTQVTVSS	high polyreactivity
QVQLVESGGGLVQAGGSLRLSCAASGFIFKYYAMGCYRQAPGKERELVAVISRSGGGTYYADSVKGRYTISRDHAKNTVYLQMNSLKTEDTAVYYCAAERSSGFDYWGQGTQVTVSS	high polyreactivity
QVQLVESGGGLVQAGGSLRFSCAASGSIFGKNAIGWYRQAPGKERELVAAITRSGGSTYYADSVKGRFTISRDNAKNTVYLQMNSLKPEDTAVYYCNAVRVRVTSHRIRQLDYGYWGQGTQVTVSS	low polyreactivity
QVQHVESGGGLVQAGGSLRLSCAASGSIFVPYAMGWYRQAPGKERELVAAISSRGGRTYYADSVKGRFTISRDNAKNTVYLQMISLKPEDTAVYYCNKTAGSHIPRLEYWGQGTQVTVSS	low polyreactivity
QVQLVESGGGLVQAGGSLRLSCAASGRTFFRNAMGWYRQAPGKERELVAAISSSGGSTYADSVKGRFTISRDNAKNTVYLQMNSLKPEDTAVYYCAATVRGKRSTYDYWGQGTQVTVSS	high polyreactivity
QVQLVESGGGLVQAGGSLRLSCAASGSTFKAYAMGWYRQAPGKERELVAAITNSDGDTYYADSVKGRFTISRDNAKNTVYLQMNSLKPEDTAVYYCIADTGKWGGNGWYEFDYWGQGTQVTVSS	low polyreactivity
QVQLVESGGGLVQAGGSLRLSCAASGFIFRTYAMGWYRQAPGKERELVATITGDGSTNYADSVKGRFTISRDNAKNTVYLQMNSLKPEDTAVYYCSRDDRLAGDYWGQGTQVTVSS	low polyreactivity
QVQLVESGGGLVQAGGSLRLSCAASGLTFTSYPMVWYRQAPGKERELVAAIDWSGGRTYYADSVKGRFTISRDNAKNTVYLQMNSLKPEDTAVYYCAAYSRNRALRFNYWGQGTQVTVSS	high polyreactivity
QVQLVESGGGLVQAGGSLRLSCAASGSIFNLNAMGWYIQAPGKERELVASISSDRSTYYADSVKGRFTISRDNAKNTVYLQMNSLKQEDTAVYYCNADSQLAFKQLSFDYWGQGTQVTVSS	low polyreactivity
QVQLVESGGGLVQAGGSLRLSCAASGIIFIFYDMGWSRQAPGKERELVATITSGTNTYADSVKGRFTISRDNAKNTVYLQMNSLKPEDTAVYSCAAGFSPASQLDYWGQGTQVTVSS	low polyreactivity
QVQLVESGGGLVQAGGSLRLSCAASGSTFVPNAMGWYRQAPGKERELVAAISSVGSTNYADSVKGRFTISRDNAKNTVYLQMNSLKPEDTAVYYCAVRYPWRYFKYGYWGQGTQVTVSS	low polyreactivity

Sequence	polyreactivity (PSR sort gate)
QVQLVDSGGGLVQAGGSLRLSCAASGRTFSVNAMGWYRQAPGKERELVAAISSAGSTNYADSVKGRFTISRDNAKNTVYLQMNSLKPEDTAVYYCAAGFSPGNYDAPTLAFDYWGQGTQVTLSS	low polyreactivity
QVQLVESGGGLGQAGGSLRLSCAASGRIFDVYAMGWYRQAPGKERELVATISSSGGATYYADSVKGRFTISRDNAKYTVYLQMNSLKPEDTAVYYCATTYRPTFRRHYNYWGQGTQVTVSS	low polyreactivity
QVQLEESGGGLDQAGGSLRLNCAASGLISVYYVRGWYIQAPGKELELVAAINRSGGNTYYADSVKGRFTISRDNAQNTVNLQMNRLKPDVTAVYYCKASLYFYRYGHDYESDYWGQGTQVTVSS	high polyreactivity
QVQLVESGGGLLQAGGSLRLSCAASGFTIVCYAMGWYRQAPGKERELVAAISSGGSTYYADSVKGRFTISRDNAKNTVFLLMNSLKPEDTAVYYCAADREYYDEYAGYEYWGQGTQVTVSS	low polyreactivity
QVQLVESGGRLVQAGGSLRLSCASSGRTFYPNAMGWYRHAPGKESELVAGIRSSGDSTYYADSVKGRFTISRDNAKNTVYLQMNSLKPEDTAVYYCNRDLTPSYDYWGQCTQVTVSS	low polyreactivity
QVHLVESGGCLVQAGGSLRLSCAASGITFRWYAMGWYILAPGKERELVSSIDGRGASTYADSVKGRFTSSRDNAKNTVYLQMNSLKPEDSAVYYCAVAQVRVSYLWVRKFYYWGQGTQVTVSS	high polyreactivity
QVQLVESGGGLVQAGCSLRLSWAASGFTFTYYAMGWYRQEPGKERELVAAISDGGASTYYSDSVKGRFTISRDNAKNTVYLQMNSLKPEDTAVYYCAAETYWPWKDDYWGQGTQVTVSS	high polyreactivity
QVQLVESGGGLVQAGGSLRLSCAASGRIFGKNAMGWYRQAPGKERELVAAITGSGGNTYYADSVKGRFTISRDNAKNTVYLQMNSLKPEDTAVYYCNTSPRFRRYPDYDYWGQGTQVTVSS	high polyreactivity
QVQLVESGGGLVQAGGSLRLSCAASGRTFYYNAMGWYRQAPGKERELVAAITYSGGSTYYADSVKGRFTISRDNAKNTVYLQMNSLKPEDTAVYYCAADVYRPAGNWEHYYWGQGNQVTVSS	low polyreactivity
QVQLEESGGGLVQAGGSLRLSSAASGGTFRPYAMGWYRQAPGKERELVATIRSSGGRTYYADSVKGRFTISRDNAKNTVYLQMTSLKPEDTAVYYCAKRAQTYYGYDYWGQGTQVTVSS	high polyreactivity
QVQLVDSGGALVQAGGSLRLSCAASGRTFRPNAMGWYRQAPGKERELVAVISWRGGRTYYADYVKGRFTISRDIAKNTVYLQMNSLKPEDTAVYYCGARVYLSGYGYNYWGQGTHVTVSS	high polyreactivity
QVQLVESGGGLVQAGGSLRLSCAASGGIFRYYAMGWYRQAPGKERELVAAISKSGGRTYYADSVKGRFTISRDNAKNTVYLQMNSLKPEDTAVYYCAADLYPFSRNTRYQFLYNYWGQGTQVTVSS	low polyreactivity
QVQLVESGGGLVQAGGSLRLSCAASGSTFDYNAMGWYRQAPGKEREFVAAISFSGSSTYYADSVKGRFTISRDNAKNTVYLQMNSLKPEDTAVYYCAKKVFASYRGYGYWGQGTQVTVSS	high polyreactivity
QVQLVESGGGLVQAGGTLRLSCAASGRTIRNYARGRYRQAPVKERELVAAITWSGGSTYYADSVKGRFTISRDNAKNTVYLQMNSLKPEDTAVYYCNVRYYTRTYNYWGQGTQVTVSS	high polyreactivity
QVQLVESGGGLVQAGGSLRLSCAASGSTFDYNTMGWYRQAPGKERELVAAISESGGSTYYADSVKGRFTISRDNAKNTVYLQMNSLKPEDTAVYYCATDDFGGYFGEYDYWGQGTQVTVSS	low polyreactivity
PVQLVESGGGFVQAGGSLRLSCAASGFTFYVNAMGWYRQAPGKERELVAAISGSGGSTYYADSVKGRFTISRDNAKNTVYLQMNSLKPEDTAGYYCAADAYNPPYWDDPYDYWGQGTQVTVSS	high polyreactivity
